In assay [1] the target is T1, full-length beta-Catenin (Uniprot ID P35222) (Homo sapiens (Human), UniProt P35222 1-781).
T1 construct: The assay protocol says full-length beta-Catenin (Uniprot ID P35222); tags are not described; also called bCat; B-Catenin
T1 sequence: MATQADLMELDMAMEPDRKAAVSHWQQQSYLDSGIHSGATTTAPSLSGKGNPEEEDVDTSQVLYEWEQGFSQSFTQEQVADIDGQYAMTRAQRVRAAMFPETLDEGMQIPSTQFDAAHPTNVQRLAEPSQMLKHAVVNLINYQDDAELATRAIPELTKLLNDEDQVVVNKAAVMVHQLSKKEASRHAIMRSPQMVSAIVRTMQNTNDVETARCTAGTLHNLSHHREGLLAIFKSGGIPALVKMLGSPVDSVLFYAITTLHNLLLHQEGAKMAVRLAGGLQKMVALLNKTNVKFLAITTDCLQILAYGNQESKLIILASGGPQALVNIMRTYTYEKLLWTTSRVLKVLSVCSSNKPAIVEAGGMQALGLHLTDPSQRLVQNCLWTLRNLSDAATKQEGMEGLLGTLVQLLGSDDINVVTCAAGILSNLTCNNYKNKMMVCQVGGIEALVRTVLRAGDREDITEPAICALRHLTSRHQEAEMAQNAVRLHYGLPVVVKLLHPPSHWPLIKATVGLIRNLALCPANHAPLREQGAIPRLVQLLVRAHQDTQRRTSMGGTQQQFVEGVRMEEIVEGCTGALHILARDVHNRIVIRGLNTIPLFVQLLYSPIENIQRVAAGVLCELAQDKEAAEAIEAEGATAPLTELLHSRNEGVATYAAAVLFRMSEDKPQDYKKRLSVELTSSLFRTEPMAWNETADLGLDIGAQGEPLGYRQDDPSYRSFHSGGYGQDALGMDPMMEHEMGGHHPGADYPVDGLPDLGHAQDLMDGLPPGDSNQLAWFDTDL
The assay can be described thus: fluorescence polarization competition: full-length beta-catenin + 5FAM-TCF4(10-53) probe, peptide titrated. As to the method: The plate was incubated protected from light for 60 minutes at 20° C. prior to read. Reads were performed on a CLARIOstar plate reader (BMG Labtech) in duplicate, and data were fitted to a 1:1 binding model with hill slope using an in-house script. All provided concentrations are final concentrations.

The target of assay [2] is T2, B-cat-Halo (UniProt P35222 1-781).
T2 sequence (looked up): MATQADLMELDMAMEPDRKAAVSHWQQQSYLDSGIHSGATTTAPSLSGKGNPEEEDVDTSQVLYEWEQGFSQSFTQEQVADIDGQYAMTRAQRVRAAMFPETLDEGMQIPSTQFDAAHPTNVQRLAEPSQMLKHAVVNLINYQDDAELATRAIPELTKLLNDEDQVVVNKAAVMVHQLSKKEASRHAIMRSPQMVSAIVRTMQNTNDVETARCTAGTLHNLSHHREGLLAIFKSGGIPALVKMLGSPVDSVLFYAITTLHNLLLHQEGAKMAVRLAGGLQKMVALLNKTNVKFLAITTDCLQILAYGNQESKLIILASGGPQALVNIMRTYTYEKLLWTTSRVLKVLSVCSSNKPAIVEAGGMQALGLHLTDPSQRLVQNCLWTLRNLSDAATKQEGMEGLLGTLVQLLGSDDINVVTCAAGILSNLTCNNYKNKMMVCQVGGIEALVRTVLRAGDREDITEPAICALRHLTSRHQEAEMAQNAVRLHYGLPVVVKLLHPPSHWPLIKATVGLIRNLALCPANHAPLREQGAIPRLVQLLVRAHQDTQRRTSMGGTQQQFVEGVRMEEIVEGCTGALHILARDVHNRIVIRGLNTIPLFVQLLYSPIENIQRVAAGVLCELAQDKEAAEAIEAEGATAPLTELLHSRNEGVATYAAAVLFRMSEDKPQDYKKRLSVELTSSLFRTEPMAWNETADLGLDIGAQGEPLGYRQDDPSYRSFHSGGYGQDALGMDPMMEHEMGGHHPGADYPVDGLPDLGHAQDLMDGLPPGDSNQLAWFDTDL
The assay can be described thus: cell-based or functional assay.

Assay [3] addresses T3, B-cat-Halo (UniProt P35222 1-781).
T3 sequence (looked up): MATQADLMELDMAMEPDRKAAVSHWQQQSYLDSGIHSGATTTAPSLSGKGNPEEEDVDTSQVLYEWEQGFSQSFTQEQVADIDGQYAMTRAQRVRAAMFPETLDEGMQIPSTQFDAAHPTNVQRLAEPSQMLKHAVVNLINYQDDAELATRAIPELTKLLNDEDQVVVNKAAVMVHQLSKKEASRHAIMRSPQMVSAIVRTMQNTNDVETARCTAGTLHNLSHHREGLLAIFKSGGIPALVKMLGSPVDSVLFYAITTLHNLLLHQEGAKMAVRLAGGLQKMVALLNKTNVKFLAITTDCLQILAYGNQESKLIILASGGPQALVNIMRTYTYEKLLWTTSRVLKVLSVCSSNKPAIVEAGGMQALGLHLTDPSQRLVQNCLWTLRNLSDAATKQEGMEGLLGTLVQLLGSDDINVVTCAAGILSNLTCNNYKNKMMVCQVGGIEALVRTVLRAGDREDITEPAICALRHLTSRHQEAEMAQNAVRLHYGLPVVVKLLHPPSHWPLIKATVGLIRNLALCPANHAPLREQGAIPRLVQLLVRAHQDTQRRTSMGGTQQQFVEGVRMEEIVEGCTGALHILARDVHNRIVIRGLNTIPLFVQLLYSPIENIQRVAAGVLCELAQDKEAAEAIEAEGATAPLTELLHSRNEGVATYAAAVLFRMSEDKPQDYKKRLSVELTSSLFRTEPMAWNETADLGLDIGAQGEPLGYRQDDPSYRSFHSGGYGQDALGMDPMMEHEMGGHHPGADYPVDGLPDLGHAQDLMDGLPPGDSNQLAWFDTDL
The assay can be described thus: cell-based or functional assay. This is another data set of the same source.

Where two headings read alike, the source gives them in different places. Starred links: 1 amine or outer side, 2 acyl side, 3 side chain; linkers in the order of their positions; H or OH if unused. Positions of bridges follow the written chain, without caps; N, C: chain ends. Non-standard residues stand in square brackets, D forms with d. Primed or numbered codes have the meaning given here. *: point of attachment. PyrS2(3) = (S)-3-amino-1-((pent-4-en-1-yloxy)carbonyl)pyrrolidine-3-carboxylic acid, stapling residue, C=CCCCOC(=O)N1CC[C@@](N[*:1])(C(=O)[*:2])C1; PyrS2″ = (S)-3-amino-1-((pent-4-en-1-yloxy)carbonyl)pyrrolidine-3-carboxylic acid (stapling residue), C=CCCCOC(=O)N1CC[C@@](N[*:1])(C(=O)[*:2])C1; PyrS3″ = (S)-3-amino-1-((hex-5-en-1-yloxy)carbonyl)pyrrolidine-3-carboxylic acid (stapling residue), C=CCCCCOC(=O)N1CC[C@@](N[*:1])(C(=O)[*:2])C1; B5(4) = 2,2-bis(4-pentenyl)glycine = 2-amino-2-(pent-4-en-1-yl)hept-6-enoic acid (stitching residue), C=CCCCC(CCCC=C)(N[*:1])C(=O)[*:2]; B5(21) = 2-amino-2-(pent-4-en-1-yl)hept-6-enoic acid, bis(4-pentenyl)glycine (stitching residue), C=CCCCC(CCCC=C)(N[*:1])C(=O)[*:2]; B5(6) = 2-amino-2-(pent-4-en-1-yl)hept-6-enoic acid (bis(4-pentenyl)glycine), stitching residue, C=CCCCC(CCCC=C)(N[*:1])C(=O)[*:2]; TfeGA = (S)-2-amino-3-((carboxymethyl)(2,2,2-trifluoroethyl)amino)propanoic acid, O=C([C@H](CN(CC(=O)[*:3])CC(F)(F)F)N[*:1])[*:2]; PyrS3 = (S)-3-amino-1-((hex-5-en-1-yloxy)carbonyl)pyrrolidine-3-carboxylic acid, C=CCCCCOC(=O)N1CC[C@@](N[*:1])(C(=O)[*:2])C1; B5(13) = 2-amino-2-(pent-4-en-1-yl)hept-6-enoic acid (two alkene chains), C=CCCCC(CCCC=C)(N[*:1])C(=O)[*:2]; B5″ = 2,2-bis(4-pentenyl)glycine, stitching residue, C=CCCCC(CCCC=C)(N[*:1])C(=O)[*:2]; Phe(2-CN) = N#Cc1ccccc1C[C@H](N)C(=O)O; Phe(2-Cl) = N[C@@H](Cc1ccccc1Cl)C(=O)O; Phe(3-F) = N[C@@H](Cc1cccc(F)c1)C(=O)O; Phe(4-F) = N[C@@H](Cc1ccc(F)cc1)C(=O)O; Bta = N[C@@H](Cc1csc2ccccc12)C(=O)O; αAllylPro = C=CC[C@@]1(C(=O)O)CCCN1; tBuAla = CC(C)(C)C[C@H](N)C(=O)O; 2Thi = N[C@@H](Cc1cccs1)C(=O)O; 3Thi = N[C@@H](Cc1ccsc1)C(=O)O; S8 = C=CCCCCCC[C@](C)(N)C(=O)O; Alaol = C[C@@H](CO)N*; Ms = CS(=O)(=O)*

B1: I-464 (peptide)
peptide: Ac-[αAllylPro]DA[B5(21)]DEAAFN[PyrS3″]F[Bta]Q-NH2
modifications: staple 1-4, 4-11; not fully specified; printed as Ac-PL3-Asp-Ala-B5-Asp-Glu-Ala-Ala-Phe-Asn-PyrS3-Phe-BztA-Gln-NH2
notes: Staple isomer composition: later-eluting HPLC peak
Take B1: the EC50 in assay [1] was 57 nM.

B2: I-469 (peptide)
peptide: Ac-[αAllylPro]DI[B5(6)]DDAAFN[S8]F[Bta]H-NH2
modifications: staple 1-4, 4-11; also: staple isomer composition: earlier-eluting HPLC peak
notes: Staple isomer composition: earlier-eluting HPLC peak
As to B2, the EC50 in assay [1] was 27 nM.

B3: I-468 (peptide)
peptide: Ac-[αAllylPro]DI[B5(6)]DDAAFN[S8]F[Bta]Q-NH2
modifications: staple 1-4, 4-11; also: staple isomer composition: later-eluting HPLC peak
notes: as for B1
Regarding B3, the EC50 in assay [1] came to 27 nM.

B4: I-467 (peptide)
peptide: Ac-[αAllylPro]DI[B5(6)]DDAAFN[S8]F[Bta]Q-NH2
modifications: staple 1-4, 4-11; also: staple isomer composition: earlier-eluting HPLC peak
notes: as for B2
Regarding B4, the half-maximal effective concentration (EC50) in assay [1] was determined as 44 nM.

B5: I-1218 (peptide)
peptide: Ms-[αAllylPro]D[tBuAla][B5″]DDAAFN[PyrS2(3)][3Thi][Bta]Q-NH2
modifications: staple 1-4, 4-11; not fully specified; printed as MeSO2-PL3-Asp-Npg-B5-Asp-Asp-Ala-Ala-Phe-Asn-PyrS2-3Thi-BztA-Gln-NH2
For B5, the “NanoBRET Abs IC50” value with B-cat-Halo [2] is greater than 20 µM. The same measure, in the same setting: as for Ac-[αAllylPro]D[tBuAla][B5(4)]DDAAFL[PyrS2″][Phe(2-Cl)][Bta]-Alaol (staple 1-4, 4-11) [I-1250], the figure is greater than 20 µM.

B6: I-462 (peptide)
peptide: Ac-[αAllylPro]DA[B5(21)]DEAAFN[PyrS2″]F[Bta]Q-NH2
modifications: staple 1-4, 4-11
notes: Stapled (stitched) peptide with non-natural residues
For B6, the EC50 in assay [1] came out at 28 nM. On to Ac-[αAllylPro]D[tBuAla][B5(13)]DDAAFN[PyrS3][3Thi][Bta]H-NH2 (staple 1-4, 4-11) [I-775], for which, in the assay with B-cat-Halo [3], the “NanoBRET Abs IC50” value is greater than 20 µM.

B7: I-454 (peptide)
peptide: Ac-[αAllylPro]DA[B5(21)]DEAA[Phe(3-F)]N[S8]F[Bta]Q-NH2
modifications: staple 1-4, 4-11
notes: as for B6
On to B7, for which, in assay [1], the EC50 amounted to 125 nM.

B8: I-455 (peptide)
peptide: Ac-[αAllylPro]DA[B5(21)]DEAA[Phe(4-F)]N[S8]F[Bta]Q-NH2
modifications: staple 1-4, 4-11
notes: as for B6
For B8, the 50% effective concentration (EC50) in assay [1] stood at 83.5 nM.

B9: I-450 (peptide)
peptide: Ac-[αAllylPro]DA[B5(21)]DEAA[2Thi]Q[S8][Phe(3-F)]WQ-NH2
modifications: staple 1-4, 4-11
notes: as for B6
As for B9, in assay [1], the EC50 stood at 3720 nM.

Consider Ms-[αAllylPro]D[tBuAla][B5″]D[TfeGA]AAFN[PyrS2(3)][3Thi][Bta]Q-NH2 (staple 1-4, 4-11; not fully specified) [I-1219], for which the “NanoBRET Abs IC50” value with B-cat-Halo [2] was greater than 20 µM.

As to Ac-[αAllylPro]D[tBuAla][B5(13)]DDAAFN[PyrS3][3Thi][Bta]H-NH2 (staple 1-4, 4-11) [I-776], the “NanoBRET Abs IC50” value with B-cat-Halo [3] was 45.7 µM. Consider Ac-[αAllylPro]D[tBuAla][B5″]DDAAFL[PyrS2(3)][Phe(2-CN)][Bta]Q-NH2 (staple 1-4, 4-11) [I-1203], for which the “NanoBRET Abs IC50” value with B-cat-Halo [2] was 10 µM.

For the origin of these results see US20240116985A1 (published 2024).
